To fix the notation:
B1: PRT-124 (protein)
chain: MRNATEAYAKEVPHQITSVWTKGVTPLTPEQFRYNNEDVIHAPYLAHQGWYDITKTFDGKDNLLCGAATAGNMLHWWFDQNKTEIEAYLSKHPEKQKIIFNNQELFDLKAAIDTKDSQTNSQLFNYFRDKAFPNLSARQLGVMPDLVLDMFINGYYLNVFKTQSTDVNRPYQDKDKRGGIFDAVFTRGDQTTLLTARHDLKNKGLNDISTIIKQELTEGKALALSHTYANVSISHVINLWGADFNAEGNLEAIYVTDSDANASIGMKKYFVGVNAHGKVAISAKKIEGENIGAQVLGLFTLSSGKDIWQKLS
B2: PRT-126 (protein)
chain: MRNATEAYAKEVPHQITSVWTKGVTPLTPEQFRYNNEDVIHAPYLANQGWYDITKTFDGKDNLLCGAATAGNMLHWWFDQNKTEIEAYLSKHPEKQKIIFNNQELFDLKAAIDTKDSQTNSQLFNYFRDKAFPNLSARQLGVMPDLVLDMFINGYYLNVFKTQSTDVNRPYQDKDKRGGIFDAVFTRGDQTTLLTARHDLKNKGLNDISDLIKQELTEGKALALSHTYANVSISHVINLWGADFNAEGNLEAIYVTDSDSNASIGMKKYFVGVNAAGHVAISAKKIEGENIGAQVLGLFTLSSGKDIWQKLS
B3: PRT-127 (protein)
chain: MRNATEAYAKEVPHQITSVWTKGVTPLTPEQFRYNNEDVIHAPYLANQGWYDITKTFNGKDNLLCGAATAGNMLHWWFDQNKTEIEAYLKKHPEKQKIIFNNQELFDLKAAIDTKDSQTNSQLFNYFRDKAFPNLSARQLGVMPDLVLDMFINGYYLNVFKTQSTDVNRPYQDKDKRGGIFDAVFTRGDQTTLLTARHDLKNKGLNEISTLIKQELTEGKALALSHTYANVSISHVINLWGADFNAEGNLEAIYVTDSDSNASIGMKKYFVGVNAHGKVAISAKKIEGENIGAQVLGLFTLSSGKDIWQKLS
B4: PRT-128 (protein)
chain: MRNATEAYAKEVPKQITSVWTKGVTPPTPEQFRYNNEDVIHAPYLANQGWYDITKTFNGKDNLLCGAATAGNMLHWWFDQNKTEIEAYLSKHPEKQKIIFNNQELFDLKAAIDTKDSQTNSQLFNYFRDKAFPNLSARQLGVMPDLVLDMFINGYYLNVFKTQSTDVNRPYQDKDKRGGIFDAVFTRGDQTTLLTARHDLKNKTLNDISTLIKQELTEGKALALSHTYANVSISHVINLWGADFNAEGNLEAIYVTDSDANASIGMKKYFVGVNAHGKVAISAKKIEGENIGAQVLGLFTLSSGKDIWQKLS
B5: PRT-133 (protein)
chain: MRNATEAYAKEVPHQITSVWTKGVTPLTPEQFRYNNEDVIHAPYLAHQGWYDITKTFDGKDNLLCGAATAGNMLHWWFDQNKTEIEAYLSKHPEKQKIIFNNQELFDLKAAIDTKDSQTNSQLFNYFRDKAFPNLSARQLGVMPDLVLDMFINGYYLNVFKTQSTDVNRPYQDKDKRGGIFDAVFTRGDQTTLLTARHDLKNKGLNDISTIIKQELTEGRALALSHTYANVSISHVINLWGADFNAEGNLEAIYVTDSDANASIGMKKYFVGINAHGHVAISAKKIEGENIGAQVLGLFTLSSGKDIWQKLS
B6: PRT-131 (protein)
chain: MRNATEAYAKEVPHQITSVWTKGVTPLTPEQFRYNNEDVIHAPYLAHQGWYDITKAFNGKDNLLCGAATAGNMLHWWFDQNKTEIEAYLKKHPEKQKIIFNNQELFDLKAAIDTKDSQTNSQLFNYFRDKAFPNLSARQLGVMPDLVLDMFINGYYLNVFKTQSTDVNRPYQDKDKRGGIFDAVFTRGDQTTLLTARHDLKNKGLNEISTIIKQELTEGRALALSHTYANVSISHVINLWGADFNAEGNLEAIYVTDSDANASIGMKKYFVGINAHGKVAISAKKIEGENIGAQVLGLFTLSSGKDIWQKLS
B7: PRT-134 (protein)
chain: MRNATEAYAKEVPHQITSVWTKGVTPLTPEQFRYNNEDVIHAPYLAHQGWYDITKAFDGKDNLLCGAATAGNMLHWWFDQNKTEIEAYLSKHPEKQKIIFNNQELFDLKAAIDTKDSQTNSQLFNYFRDKAFPNLSARQLGVMPDLVLDMFINGYYLNVFKTQSTDVNRPYQDKDKRGGIFDAVFTRGDQTTLLTARHDLKNKGLNDISTLIKQELTEGRALALSHTYANVSISHVINLWGADFNAEGNLEAIYVTDSDANASIGMKKYFVGINAHGHVAISAKKIEGENIGAQVLGLFTLSSGKDIWQKLS
B8: PRT-129 (protein)
chain: MRNATEAYAKEVPHQITSVWTKGVTPLTPEQFRYNNEDVFHAPYLANQGWYDITKAFDGKDNLLCGAATAGNMLHWWFDQNKTEIEAYLSKHPEKQKIIFNNQELFDLKAAIDTKDSQTNSQLFNYFRDKAFPNLSARQLGVMPDLVLDMFINGYYLNVFKTQSTDVNRPYQDKDKRGGIFDAVFTRGDQTKLLTARHDLKNKGLNDISTLIKQELTEGRALALSHTYANVSISHVINLWGADFNAEGNLEAIYVTDSDANASIGMKKYFVGINAHGHVAISAKKIEGENIGAQVLGLFTLSSGKDIWQKLS
B9: PRT-125 (protein)
chain: MRNATEAYAKEVPHQITSVWTKGVTPLTPEQFRYNNEDVFHAPYLANQGWYDITKTFDGKDNLLCGAATAGNMLHWWFDQNKTEIEAYLSKHPEKQKIIFNNQELFDLKAAIDTKDSQTNSQLFNYFRDKAFPNLSARQLGVMPDLVLDMFINGYYLNVFKTQSTDVNRPYQDKDKRGGIFDAVFTRGDQTKLLTARHDLKNKGLNDISTLIKQELTEGKALALSHTYANVSISHVINLWGADFNAEGNLEAIYVTDSDANASIGMKKYFVGVNAHGHVAISAKKIEGENIGAQVLGLFTLSSGKDIWQKLS
B10: PRT-135 (protein)
chain: MRNATEAYAKEVPHQITSVWTKGVTPLTPEQFRYNNEDVIHAPYLAHQGWYDITKAFDGKDNLLCGAATAGNMLHWWFDQNKTEIEAYLSKHPEKQKIIFNNQELFDLKAAIDTKDSQTNSQLFNYFRDKAFPNLSARQLGVMPDLVLDMFINGYYLNVFKTQSTDVNRPYQDKDKRGGIFDAVFTRGDQTTLLTARHDLKNKGLNDISTIIKQELTEGKALALSHTYANVSISHVINLWGADFNAEGNLEAIYVTDSDANASIGMKKYFVGINAHGHVAISAKKIEGENIGAQVLGLFTLSSGKDIWQKLS
B11: PRT-130 (protein)
chain: MRNATEAYAKEVPHQITSVWTKGVTPLTPEQFRYNNEDVIHAPYLAHQGWYDITKAFDGKDNLLCGAATAGNMLHWWFDQNKTEIEAYLSKHPEKQKIIFNNQELFDLKAAIDTKDSQTNSQLFNYFRDKAFPNLSARQLGVMPDLVLDMFINGYYLNVFKTQSTDVNRPYQDKDKRGGIFDAVFTRGDQTTLLTARHDLKNKGLNDISDIIKQELTEGRALALSHTYANVSISHVINLWGADFNAEGNLEAIYVTDSDSNASIGMKKYFVGINAAGHVAISAKKIEGENIGAQVLGLFTLSSGKDIWQKLS
B12: PRT-132 (protein)
chain: MRNATEAYAKEVPKQITSVWTKGVTPPTPEQFRYNNEDVIHAPYLAHQGWYDITKAFDGKDNLLCGAATAGNMLHWWFDQNKTEIEAYLSKHPEKQKIIFNNQELFDLKAAIDTKDSQTNSQLFNYFRDKAFPNLSARQLGVMPDLVLDMFINGYYLNVFKTQSTDVNRPYQDKDKRGGIFDAVFTRGDQTTLLTARHDLKNKTLNDISTIIKQELTEGRALALSHTYANVSISHVINLWGADFNAEGNLEAIYVTDSDANASIGMKKYFVGINAHGHVAISAKKIEGENIGAQVLGLFTLSSGKDIWQKLS
B13: PRT-11 (protein)
chain: MANQEIRYSEETPYHVTSVWTKGVTPPANFTQGEDVFHAPYVANQGWYDITKTFNGKDDLLCGAATAGNMLHWWFDQNKDQIEKYLKEHPEKQKINFNGEQMFDVKEAIDTKDSQTDSKLFEYFKEKAFPYLSTKHLGVFPDHVIDMFINGYRLSLTNHGPTPVKEQSKDPRGGIFDAVFTRGDQSKLLTSRHDFKEKTLKEISDLIKKELSEGKALGLSHTYANVRINHVINLWGADFDSNGNLKAIYVTDSDSNASIGMKKYFVGVNSAGKVAISAKEIKEDNIGAQVLGLFTLSTGQDIWNQTN

For this data set, the target named is pooled human IgG.
Protein B1 had an Enzyme Activity Endpoint Assay (purified): Fab'2 of 676 ng/µL, an Enzyme Activity Endpoint Assay (purified): Fc of 202 ng/µL, an Enzyme Activity Endpoint Assay (purified): IgG of 0 ng/µL and an Enzyme Activity Endpoint Assay (purified): scIgG of 0 ng/µL.

For B2, the Enzyme Activity Endpoint Assay (purified): Fab'2 was 472 ng/µL, the Enzyme Activity Endpoint Assay (purified): Fc was 160 ng/µL, the Enzyme Activity Endpoint Assay (purified): IgG came to 0 ng/µL and the Enzyme Activity Endpoint Assay (purified): scIgG is 0 ng/µL.

For B3, the Enzyme Activity Endpoint Assay (purified): Fab'2 was determined as 523 ng/µL, the Enzyme Activity Endpoint Assay (purified): Fc turned out to be 140 ng/µL, the Enzyme Activity Endpoint Assay (purified): IgG stood at 0 ng/µL and the Enzyme Activity Endpoint Assay (purified): scIgG was 0 ng/µL.

Take B4: the Enzyme Activity Endpoint Assay (purified): Fab'2 amounted to 560 ng/µL, the Enzyme Activity Endpoint Assay (purified): Fc is 151 ng/µL, the Enzyme Activity Endpoint Assay (purified): IgG came to 0 ng/µL and the Enzyme Activity Endpoint Assay (purified): scIgG was determined as 60 ng/µL.

For the protein B5, the Enzyme Activity Endpoint Assay (purified): Fab'2 was 774 ng/µL, the Enzyme Activity Endpoint Assay (purified): Fc is 207 ng/µL, the Enzyme Activity Endpoint Assay (purified): IgG came to 0 ng/µL and the Enzyme Activity Endpoint Assay (purified): scIgG was 12 ng/µL.

Consider B6, for which the Enzyme Activity Endpoint Assay (purified): Fab'2 is 745 ng/µL, the Enzyme Activity Endpoint Assay (purified): Fc came to 201 ng/µL, the Enzyme Activity Endpoint Assay (purified): IgG was 0 ng/µL and the Enzyme Activity Endpoint Assay (purified): scIgG turned out to be 0 ng/µL.

The protein B7 came in with an Enzyme Activity Endpoint Assay (purified): Fab'2 of 597 ng/µL, an Enzyme Activity Endpoint Assay (purified): Fc of 174 ng/µL, an Enzyme Activity Endpoint Assay (purified): IgG of 0 ng/µL and an Enzyme Activity Endpoint Assay (purified): scIgG of 0 ng/µL.

B8: the Enzyme Activity Endpoint Assay (purified): Fab'2 amounted to 384 ng/µL, the Enzyme Activity Endpoint Assay (purified): Fc was found to be 169 ng/µL, the Enzyme Activity Endpoint Assay (purified): IgG was determined as 0 ng/µL and the Enzyme Activity Endpoint Assay (purified): scIgG worked out at 0 ng/µL.

As for B9, the Enzyme Activity Endpoint Assay (purified): Fab'2 is 609 ng/µL, the Enzyme Activity Endpoint Assay (purified): Fc is 197 ng/µL, the Enzyme Activity Endpoint Assay (purified): IgG was found to be 0 ng/µL and the Enzyme Activity Endpoint Assay (purified): scIgG came to 0 ng/µL.

In turn, B10 registered an Enzyme Activity Endpoint Assay (purified): Fab'2 of 526 ng/µL, an Enzyme Activity Endpoint Assay (purified): Fc of 140 ng/µL, an Enzyme Activity Endpoint Assay (purified): IgG of 0 ng/µL and an Enzyme Activity Endpoint Assay (purified): scIgG of 6 ng/µL.

For the protein B11, the Enzyme Activity Endpoint Assay (purified): Fab'2 came to 592 ng/µL, the Enzyme Activity Endpoint Assay (purified): Fc is 192 ng/µL, the Enzyme Activity Endpoint Assay (purified): IgG came to 0 ng/µL and the Enzyme Activity Endpoint Assay (purified): scIgG was determined as 0 ng/µL.

B12 had an Enzyme Activity Endpoint Assay (purified): Fab'2 of 697 ng/µL, an Enzyme Activity Endpoint Assay (purified): Fc of 219 ng/µL, an Enzyme Activity Endpoint Assay (purified): IgG of 0 ng/µL and an Enzyme Activity Endpoint Assay (purified): scIgG of 0 ng/µL.

B13: the Enzyme Activity Endpoint Assay: Fab′2 is 40 ng/µL, the Enzyme Activity Endpoint Assay: Fc amounted to 100 ng/µL, the Enzyme Activity Endpoint Assay: IgG was 13 ng/µL and the Enzyme Activity Endpoint Assay: scIgG came to 0 ng/µL.

Source of the values: patent publication US20250027068.
